From patent EP4631959A2, “NOVEL MINIGASTRIN-DERIVED CHOLECYSTOKININ 2 RECEPTOR BINDING MOLECULES FOR IMAGING AND TARGETED RADIOTHERAPY” (priority 2022, dated 2024)
Like-named read-outs stand apart in the source and are kept apart here. Starred links: 1 amine or outer side, 2 acyl side, 3 side chain; linkers in the order of their positions; H or OH if unused. Non-standard residues stand in square brackets, D forms with d. Residues, ends and D or L forms follow the SMILES beside them. *: point of attachment. X3 = CC(C)(C)[Si](F)(c1ccc(C(=O)NC[C@@H](NC(=O)CN2CCN(CC(=O)O)CCN(CC(=O)O)CCN(CC(=O)O)CC2)C(=O)*)cc1)C(C)(C)C; DOTA = O=C(O)CN1CCN(CC(=O)O)CCN(CC(=O)*)CCN(CC(=O)O)CC1; NODAGA = O=C(O)CN1CCN(CC(=O)O)CCN(C(CCC(=O)*)C(=O)O)CC1; NOTA = O=C(O)CN1CCN(CC(=O)O)CCN(CC(=O)*)CC1; d(γGlu) = O=C(O)[C@@H](CCC(=O)[*:2])N[*:1]; 1Nal = N[C@@H](Cc1cccc2ccccc12)C(=O)O; NMeNle = CCCC[C@H](NC)C(=O)O; PEG4 = NCCOCCOCCOCCOCCC(=O)O; dOrn = NCCC[C@@H](N)C(=O)O; PEG3 = NCCOCCOCCOCCC(=O)O; Nle = CCCC[C@H](N)C(=O)O; AEEA = NCCOCCOCC(=O)O

Assays:
[1] = n-Octanol-PBS distribution coefficient (logD7.4); type: physicochemical; conditions: pH = 7.4, ^177Lu-labeled
Method: Approximately 1 MBq of the labeled tracer was dissolved in 1 mL of a 1/1 mixture (v/v) of phosphate buffered saline (PBS, pH = 7.4) and n-octanol in an Eppendorf tube (1.5 mL). After vigorous mixing of the suspension for 3 min at rt, the vial was centrifuged at 9,000 rpm for 5 min (Biofuge 15, Heraeus Sepatech, Osterode, Germany) and 200 µL aliquots of both layers were measured in a γ-counter. The experiment was repeated at least five times.

CCK-2R = biological target: T1, CCK-2R (Rattus norvegicus, UniProt P30553); test: Determination of IC50: CCK-2R affinity on AR4-2J cells, competition with [^177Lu]Lu-DOTA-PP-F11N; type: binding; conditions: AR4-2J cells
T1 construct: The CCK-2R expressing rat pancreatic tumor cells AR4-2J; host or cells: AR4-2J rat pancreatic tumor cells
T1 sequence (P30553 1-452): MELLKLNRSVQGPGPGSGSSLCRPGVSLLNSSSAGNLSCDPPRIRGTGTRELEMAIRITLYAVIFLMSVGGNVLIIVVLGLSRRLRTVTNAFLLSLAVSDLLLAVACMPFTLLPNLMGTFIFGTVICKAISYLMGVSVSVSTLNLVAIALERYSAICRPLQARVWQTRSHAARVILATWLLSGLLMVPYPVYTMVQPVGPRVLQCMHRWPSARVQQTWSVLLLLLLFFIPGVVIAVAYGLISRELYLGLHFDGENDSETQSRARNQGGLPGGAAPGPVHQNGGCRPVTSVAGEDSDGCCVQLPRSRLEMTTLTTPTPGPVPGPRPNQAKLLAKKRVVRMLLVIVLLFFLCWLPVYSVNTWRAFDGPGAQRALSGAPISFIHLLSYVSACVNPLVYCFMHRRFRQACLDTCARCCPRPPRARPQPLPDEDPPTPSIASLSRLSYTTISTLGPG
Method: AR4-2J cells were harvested 24 ± 2 h before the experiment and seeded in 24-well plates (2.0 × 10^5 cells in 1 mL/well). After removal of the nutrient medium (RPMI 1640, 5 mM L-Gln, 5 mL non-essential amino acids (100×), 10% FCS), the cells were washed once with 500 µL PBS. Thereafter, 200 µL nutrient medium (5% BSA, v/v) were added. Next, 25 µL per well of solutions containing either nutrient medium (5% BSA, v/v) as control or the respective compound in increasing concentration (10^-10 - 10^-4 M), were added with subsequent addition of 25 µL [^177Lu]Lu-DOTA-PP-F11N (0.3 pmol/well).
All experiments were performed in triplicate for each concentration. After 3 h incubation at 37 °C, the experiment was terminated by removal of the medium and consecutive rinsing with 300 µL PBS. The media of both steps were combined in one fraction and represent the amount of free radiolabeled reference. Afterwards, the cells were lysed with 300 µL of 1 M NaOH for at least 15 min and united with the 300 µL NaOH of the following washing step. Quantification of bound and free radiolabeled reference was accomplished in a γ-counter. IC50 determination for each conjugate was repeated twice.

[2] = ^natLu-labeled, read-out: IC50 [nM] (n = 3), ^natLu-labeled
[3] = ^natGa-labeled, read-out: IC50 [nM] (n = 3), ^natGa-labeled

Row | Structure (SMILES) | logD7.4 (n ≥ 5), ^177Lu-labeled [1] | IC50 (CCK-2R; [2]) | other results
1 | CCCC[C@@H](C(=O)N[C@@H](CC(=O)O)C(=O)N[C@@H](Cc1cccc2ccccc12)C(N)=O)N(C)C(=O)[C@H](Cc1c[nH]c2ccccc12)NC(=O)CNC(=O)[C@H](Cc1ccc(O)cc1)NC(=O)CNC(=O)CNC(=O)CN1CCN(CC(=O)O)CCN(CC(=O)O)CCN(CC(=O)O)CC1 [DOTA-CCK-56, DOTA-(Gly)2-Tyr-Gly-Trp-(N-Me)NIe-Asp-1-Nal-NH2] ({DOTA}-GGYGW[NMeNle]D[1Nal]-NH2) | −1.38 ± 0.07 | 4.9 ± 0.8 nM | –
2 | CCCC[C@@H](C(=O)N[C@@H](CC(=O)O)C(=O)N[C@@H](Cc1cccc2ccccc12)C(N)=O)N(C)C(=O)[C@H](Cc1c[nH]c2ccccc12)NC(=O)CNC(=O)[C@H](Cc1ccc(O)cc1)NC(=O)[C@H](C)NC(=O)CNC(=O)CN1CCN(CC(=O)O)CCN(CC(=O)O)CCN(CC(=O)O)CC1 [DOTA-CCK-57, DOTA-Gly-Ala-Tyr-Gly-Trp-(N-Me)Nle-Asp-1-Nal-NH2] ({DOTA}-GAYGW[NMeNle]D[1Nal]-NH2) | −1.26 ± 0.08 | 5.6 ± 0.5 nM | –
3 | CCCC[C@@H](C(=O)N[C@@H](CC(=O)O)C(=O)N[C@@H](Cc1cccc2ccccc12)C(N)=O)N(C)C(=O)[C@H](Cc1c[nH]c2ccccc12)NC(=O)CNC(=O)[C@H](Cc1ccc(O)cc1)NC(=O)CNC(=O)CC[C@@H](NC(=O)CN1CCN(CC(=O)O)CCN(CC(=O)O)CCN(CC(=O)O)CC1)C(=O)O [DOTA-CCK-59, DOTA-γ-glu-Gly-Tyr-Gly-Trp-(N-Me)Nle-Asp-1-Nal-NH2] ({DOTA-d(γGlu)}-GYGW[NMeNle]D[1Nal]-NH2) | −2.63 ± 0.05 | 4.2 ± 0.5 nM | –
4 | CCCC[C@@H](C(=O)N[C@@H](CC(=O)O)C(=O)N[C@@H](Cc1cccc2ccccc12)C(N)=O)N(C)C(=O)[C@H](Cc1c[nH]c2ccccc12)NC(=O)CNC(=O)CNC(=O)[C@H](C)NC(=O)CC[C@@H](NC(=O)CN1CCN(CC(=O)O)CCN(CC(=O)O)CCN(CC(=O)O)CC1)C(=O)O [DOTA-CCK-60, DOTA-γ-glu-Ala-(Gly)2-Trp-(N-Me)Nle-Asp-1-Nal-NH2] ({DOTA-d(γGlu)}-AGGW[NMeNle]D[1Nal]-NH2) | −2.56 ± 0.09 | 7.9 ± 0.43 nM | –
5 | CCCC[C@@H](C(=O)N[C@@H](CC(=O)O)C(=O)N[C@@H](Cc1cccc2ccccc12)C(N)=O)N(C)C(=O)[C@H](Cc1c[nH]c2ccccc12)NC(=O)CNC(=O)CNC(=O)CNC(=O)CC[C@@H](NC(=O)CN1CCN(CC(=O)O)CCN(CC(=O)O)CCN(CC(=O)O)CC1)C(=O)O [DOTA-CCK-62, DOTA-γ-glu-(Gly)3-Trp-(N-Me)Nle-Asp-1-Nal-NH2] ({DOTA-d(γGlu)}-GGGW[NMeNle]D[1Nal]-NH2) | −2.66 ± 0.06 | 8.2 ± 1.3 nM | –
6 | CCCC[C@@H](C(=O)N[C@@H](CC(=O)O)C(=O)N[C@@H](Cc1cccc2ccccc12)C(N)=O)N(C)C(=O)[C@H](Cc1c[nH]c2ccccc12)NC(=O)CCOCCOCCOCCNC(=O)CC[C@@H](NC(=O)CN1CCN(CC(=O)O)CCN(CC(=O)O)CCN(CC(=O)O)CC1)C(=O)O [DOTA-CCK-63, DOTA-γ-glu-(PEG)2-Trp-(N-Me)Nle-Asp-1-Nal-NH2] ({DOTA-d(γGlu)-PEG3}-W[NMeNle]D[1Nal]-NH2) | −3.03 ± 0.09 | 4.8 ± 1.1 nM | logD7.4 (n ≥ 5), ^177Lu-labeled ([1]; listed as [^177Lu]Lu-DOTA-CCK-63): < -3
7 | CCCC[C@@H](C(=O)N[C@@H](CC(=O)O)C(=O)N[C@@H](Cc1cccc2ccccc12)C(N)=O)N(C)C(=O)[C@H](Cc1c[nH]c2ccccc12)NC(=O)COCCOCCNC(=O)CC[C@@H](NC(=O)CN1CCN(CC(=O)O)CCN(CC(=O)O)CCN(CC(=O)O)CC1)C(=O)O [DOTA-CCK-77, DOTA-γ-glu-PEG-Trp-(N-Me)Nle-Asp-1-Nal-NH2] ({DOTA-d(γGlu)-AEEA}-W[NMeNle]D[1Nal]-NH2) | −3.09 ± 0.06 | – | logD7.4 (n ≥ 5), ^177Lu-labeled ([1]; listed as [^177Lu]Lu-DOTA-CCK-77): < -3
8 | CCCC[C@H](NC(=O)[C@H](Cc1c[nH]c2ccccc12)NC(=O)CNC(=O)[C@H](Cc1ccc(O)cc1)NC(=O)[C@H](C)NC(=O)CC[C@@H](NC(=O)CC[C@@H](NC(=O)CC[C@@H](NC(=O)CC[C@@H](NC(=O)CC[C@@H](NC(=O)[C@H](N)CCCNC(=O)[C@@H](CNC(=O)c1ccc([Si](F)(C(C)(C)C)C(C)(C)C)cc1)NC(=O)CN1CCN(CC(=O)O)CCN(CC(=O)O)CCN(CC(=O)O)CC1)C(=O)O)C(=O)O)C(=O)O)C(=O)O)C(=O)O)C(=O)N[C@@H](CC(=O)O)C(=O)N[C@@H](Cc1ccccc1)C(N)=O [DOTA-MG-SiFA-27, DOTA-dap(SiFA)-γ-orn-(γ-glu)5-F11N] (H-[dOrn](X3)[d(γGlu)][d(γGlu)][d(γGlu)][d(γGlu)][d(γGlu)]AYGW[Nle]DF-NH2) | −1.90 ± 0.10 | – | –
9 | CCCC[C@H](NC(=O)[C@H](Cc1c[nH]c2ccccc12)NC(=O)CNC(=O)[C@H](Cc1ccc(O)cc1)NC(=O)[C@H](C)NC(=O)CC[C@@H](NC(=O)CC[C@@H](NC(=O)CC[C@@H](NC(=O)CC[C@@H](NC(=O)CC[C@@H](NC(=O)CC[C@@H](NC(=O)CC[C@@H](NC(=O)[C@H](N)CCCNC(=O)[C@@H](CNC(=O)c1ccc([Si](F)(C(C)(C)C)C(C)(C)C)cc1)NC(=O)CN1CCN(CC(=O)O)CCN(CC(=O)O)CCN(CC(=O)O)CC1)C(=O)O)C(=O)O)C(=O)O)C(=O)O)C(=O)O)C(=O)O)C(=O)O)C(=O)N[C@@H](CC(=O)O)C(=O)N[C@@H](Cc1ccccc1)C(N)=O [DOTA-MG-SiFA-28, DOTA-dap(SiFA)-γ-orn-(γ-glu)7-F11N] | −1.81 ± 0.10 | – | –
10 | CCCC[C@H](NC(=O)[C@H](Cc1c[nH]c2ccccc12)NC(=O)CNC(=O)[C@H](Cc1ccc(O)cc1)NC(=O)[C@H](C)NC(=O)CC[C@@H](NC(=O)CC[C@@H](NC(=O)CC[C@@H](NC(=O)CC[C@@H](NC(=O)CC[C@@H](NC(=O)CC[C@@H](NC(=O)CC[C@@H](NC(=O)[C@H](N)CCCCNC(=O)[C@@H](CNC(=O)c1ccc([Si](F)(C(C)(C)C)C(C)(C)C)cc1)NC(=O)CN1CCN(CC(=O)O)CCN(CC(=O)O)CCN(CC(=O)O)CC1)C(=O)O)C(=O)O)C(=O)O)C(=O)O)C(=O)O)C(=O)O)C(=O)O)C(=O)N[C@@H](CC(=O)O)C(=O)N[C@@H](Cc1ccccc1)C(N)=O [DOTA-MG-SiFA-30, DOTA-dap(SiFA)-γ-lys-(γ-glu)7-F11N] | −1.74 ± 0.03 | – | –
11 | CCCC[C@H](NC(=O)[C@H](Cc1c[nH]c2ccccc12)NC(=O)CNC(=O)[C@H](Cc1ccc(O)cc1)NC(=O)[C@H](C)NC(=O)CC[C@@H](NC(=O)CC[C@@H](NC(=O)CC[C@@H](NC(=O)CC[C@@H](NC(=O)CC[C@@H](NC(=O)CC[C@@H](NC(=O)CC[C@@H](NC(=O)[C@H](N)CCCCNC(=O)[C@@H](CNC(=O)c1ccc([Si](F)(C(C)(C)C)C(C)(C)C)cc1)NC(=O)[C@H](N)CCCCNC(=O)CN1CCN(CC(=O)O)CCN(CC(=O)O)CCN(CC(=O)O)CC1)C(=O)O)C(=O)O)C(=O)O)C(=O)O)C(=O)O)C(=O)O)C(=O)O)C(=O)N[C@@H](CC(=O)O)C(=O)N[C@@H](Cc1ccccc1)C(N)=O [DOTA-MG-SiFA-31, DOTA-γ-lys-dap(SiFA)-γ-lys-(γ-glu)7-F11N] | −1.88 ± 0.10 | – | –
12 | CCCC[C@@H](C(=O)N[C@@H](CC(=O)O)C(=O)N[C@@H](Cc1cccc2ccccc12)C(N)=O)N(C)C(=O)[C@H](Cc1c[nH]c2ccccc12)NC(=O)CCOCCOCCOCCOCCNC(=O)CC[C@@H](NC(=O)CCC(C(=O)O)N1CCN(CC(=O)O)CCN(CC(=O)O)CC1)C(=O)O (stereo partly drawn) [NODAGA-CCK-66, NODAGA-γ-glu-(PEG)3-Trp-(N-Me)Nle-Asp-1-Nal-NH2] ({NODAGA-d(γGlu)-PEG4}-W[NMeNle]D[1Nal]-NH2) | – | – | IC50 (CCK-2R; [3]): 4.9 ± 0.7 nM
13 | CCCC[C@@H](C(=O)N[C@@H](CC(=O)O)C(=O)N[C@@H](Cc1cccc2ccccc12)C(N)=O)N(C)C(=O)[C@H](Cc1c[nH]c2ccccc12)NC(=O)CCOCCOCCOCCOCCNC(=O)CC[C@@H](NC(=O)CN1CCN(CC(=O)O)CCN(CC(=O)O)CC1)C(=O)O [NOTA-CCK-66, NOTA-γ-glu-(PEG)3-Trp-(N-Me)Nle-Asp-1-Nal-NH2] ({NOTA-d(γGlu)-PEG4}-W[NMeNle]D[1Nal]-NH2) | – | – | IC50 (CCK-2R; [^19F]AlF-complexated, read-out: IC50 [nM] (n = 3), ^natAlF-labeled): 10.4 ± 0.9 nM; IC50 (CCK-2R; [3]): 9.7 ± 1 nM
